# Source: publication PMC10397247
# T1: 4H2648-AA
# T1 chain: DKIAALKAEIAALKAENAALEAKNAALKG
# T2: 4H2907-AA
# T2 chain: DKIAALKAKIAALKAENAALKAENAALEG
# T3: 4H3606-AA
# T3 chain: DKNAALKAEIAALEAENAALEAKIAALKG
# T4: 4H3133-AA
# T4 chain: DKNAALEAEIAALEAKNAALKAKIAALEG
# T5: 4H1874-AA
# T5 chain: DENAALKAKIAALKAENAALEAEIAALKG
# T6: 4H2553-AA
# T6 chain: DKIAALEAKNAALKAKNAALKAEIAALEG
# T7: 4H340-AA
# T7 chain: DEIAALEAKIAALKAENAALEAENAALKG
# T8: 4H3588-AA
# T8 chain: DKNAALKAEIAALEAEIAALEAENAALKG
# T9: 4H3056-AA
# T9 chain: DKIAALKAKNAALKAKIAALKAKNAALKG
# T10: 4H1629-AA
# T10 chain: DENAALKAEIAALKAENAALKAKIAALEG
# T11: 4H2198-AA
# T11 chain: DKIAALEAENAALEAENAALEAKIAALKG
# T12: 4H3718-AA
# T12 chain: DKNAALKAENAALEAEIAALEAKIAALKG
# T13: 4H3162-AA
# T13 chain: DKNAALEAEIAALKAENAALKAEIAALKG
# T14: 4H1845-AA
# T14 chain: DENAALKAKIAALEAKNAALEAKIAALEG
# T15: 4H3865-AA
# T15 chain: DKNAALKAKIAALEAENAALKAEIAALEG
# T16: 4H32-AA
# T16 chain: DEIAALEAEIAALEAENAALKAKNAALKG
# T17: 4H1594-AA
# T17 chain: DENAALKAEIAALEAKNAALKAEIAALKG
# T18: 4H982-AA
# T18 chain: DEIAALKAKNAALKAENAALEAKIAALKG
# T19: 4H3631-AA
# T19 chain: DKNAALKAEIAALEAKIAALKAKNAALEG
# T20: 4H384-AA
# T20 chain: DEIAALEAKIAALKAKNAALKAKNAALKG
# T21: 4H2620-AA
# T21 chain: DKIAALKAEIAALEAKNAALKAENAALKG
# T22: 4H3378-AA
# T22 chain: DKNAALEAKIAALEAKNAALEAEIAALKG
# T23: 4H3697-AA
# T23 chain: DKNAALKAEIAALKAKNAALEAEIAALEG
# T24: 4H697-AA
# T24 chain: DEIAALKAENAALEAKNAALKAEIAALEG
# T25: 4H3413-AA
# T25 chain: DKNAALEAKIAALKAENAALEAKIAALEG
# T26: 4H2611-AA
# T26 chain: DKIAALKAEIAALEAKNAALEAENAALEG
# What was measured:
# Experiment in all cases: two-hybrid library CCmax;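 also: natural log of median RNA to DNA barcode read ratio; higher means stronger binding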
# [1] = molecular target: T1, 4H2648-AA; details: mean of both orientations
# [2] = molecular target: T2, 4H2907-AA; details: mean of both orientations
# [3] = molecular target: T3, 4H3606-AA; details: mean of both orientations
# [4] = molecular target: T4, 4H3133-AA; details: mean of both orientations
# [5] = molecular target: T5, 4H1874-AA; details: mean of both orientations
# [6] = molecular target: T6, 4H2553-AA; details: mean of both orientations
# [7] = molecular target: T7, 4H340-AA; details: mean of both orientations
# [8] = molecular target: T8, 4H3588-AA; details: mean of both orientations
# [9] = molecular target: T9, 4H3056-AA; details: mean of both orientations
# [10] = molecular target: T10, 4H1629-AA; details: mean of both orientations
# [11] = molecular target: T11, 4H2198-AA; details: mean of both orientations
# [12] = molecular target: T12, 4H3718-AA
# [13] = molecular target: T13, 4H3162-AA; details: mean of both orientations
# [14] = molecular target: T14, 4H1845-AA; details: mean of both orientations
# [15] = molecular target: T15, 4H3865-AA; details: mean of both orientations
# [16] = molecular target: T16, 4H32-AA; details: mean of both orientations
# [17] = molecular target: T17, 4H1594-AA
# [18] = molecular target: T18, 4H982-AA; details: mean of both orientations
# [19] = molecular target: T19, 4H3631-AA; details: mean of both orientations
# [20] = molecular target: T20, 4H384-AA; details: mean of both orientations
# [21] = molecular target: T21, 4H2620-AA; details: mean of both orientations
# [22] = molecular target: T22, 4H3378-AA; details: mean of both orientations
# [23] = molecular target: T23, 4H3697-AA; details: mean of both orientations
# [24] = molecular target: T24, 4H697-AA; details: mean of both orientations
# [25] = molecular target: T25, 4H3413-AA; details: mean of both orientations
# [26] = molecular target: T26, 4H2611-AA; details: mean of both orientations
binder,measurement,setting,value
DENAALKAEIAALEAKNAALKAEIAALKG [4H1594-AA],interaction score,[1],-0.627
same,interaction score,[2],-1.36
same,interaction score,[3],1.96
same,interaction score,[4],-2.2
same,interaction score,[5],2.24
same,interaction score,[6],-1.6
same,interaction score,[7],0.908
same,interaction score,[8],-1.26
same,interaction score,[9],-2.01
same,interaction score,[10],-0.822
same,interaction score,[11],-1.61
same,interaction score,[12],-1.13
same,interaction score,[13],0.0257
same,interaction score,[14],-0.968
same,interaction score,[15],1.15
same,interaction score,[16],-1.19
same,interaction score,[17],1.19
same,interaction score,[18],1.3
same,interaction score,[19],-1.31
same,interaction score,[20],-1.64
same,interaction score,[21],-1.5
same,interaction score,[22],-0.189
same,interaction score,[23],0.415
same,interaction score,[24],-2.03
same,interaction score,[25],1.73
same,interaction score,[26],-1.7
